These results are taken from the supplement of paper PMC12042874.

± gives the uncertainty stated by the source.

The nature of the data set: amyloid nucleation score (Sup35N fusion, yeast selection) (log enrichment); library NNK2; higher = more nucleation; inactive = no reads after selection. Put shortly: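 Output and input plasmid inserts were sequenced by Illumina after psi-negative yeast carrying Sup35N fused to peptides of 20 random codons had been induced 24 hours with 100 μM copper sulfate and grown 7 days at 30°C on medium lacking adenine and uracil. The nucleation score is the DiMSum log enrichment of output over input reads, centred on the mode score of non-aggregating sequences. Sequences with under 100 input reads were excluded.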
LMTPVNSILLRLWCSIFLCF: the amyloid nucleation score amounted to 3.26 ± 0.12.
Take LEYCDATLVVRDRQVSAVFL: the amyloid nucleation score is 0.584 ± 0.35.
As for ELSRAGYEWCLGSHTSLVSS, the amyloid nucleation score worked out at 0.836 ± 0.32.
The substance VIRYINSEDFRTGREFTRGV registered an amyloid nucleation score of -1.68 ± 0.78.
In turn, ISIYIITVILFLVDALYMLR gave an amyloid nucleation score of -0.809 ± 1.1.
In turn, FEVYKANDIEIYYAVCEMGV registered an amyloid nucleation score of -1.34 ± 0.26.
Turning to GYRYHLWHVT, the amyloid nucleation score result is “inactive”.
In the case of YISSKYYWSTVKCFAFNTFH, the amyloid nucleation score was -0.594 ± 0.42.
To TFMAIRSLNSSASGWATGF belongs 3.01 ± 0.049; to TLGVSRNLALSTEARTLRPY, -0.041 ± 0.42; to FISMNLEVSN, -0.26 ± 1.
To TGRGAHFHRI belongs -0.24 ± 0.42; to CEFQILSN, -0.381 ± 0.56.
Turning to DSVIGSLCPNCYGWRISKVM, the amyloid nucleation score was found to be 0.081 ± 1.1.
To WKFSYDFSASASGHHALVNK belongs 3.22 ± 0.13; to WEIYIGTLTIKWLFTMDRLV, -0.133 ± 0.23.
For WPSLVLGYDMLGVI, the amyloid nucleation score was -0.025 ± 1.1.
Substance CVLGAVYLHRLTDGCDVKFT yielded an amyloid nucleation score of 0.762 ± 0.81.
NWRTCLALNCLTDPAKYLIN: the amyloid nucleation score was -0.725 ± 0.76.
Substance FKNAWFLATFNPTT registered an amyloid nucleation score of -0.104 ± 0.23.
The substance MPSRYMIVMFNLTLPRRGVG registered an amyloid nucleation score of -0.226 ± 0.55.
Regarding ITSICGIIE, the amyloid nucleation score result was “inactive”.
With RVVRGWIAYFW, the amyloid nucleation score amounted to 0.374 ± 0.44.
Take FMVILYLDSLSLPWNWIVFG: the amyloid nucleation score was 0.098 ± 0.54.
As to RKVVRLSHFLMCDCSRKPRR, the amyloid nucleation score is -0.072 ± 0.76.
The substance NITLYFKRSLDLFGEPMWTQ registered an amyloid nucleation score of 1.53 ± 0.16.
The substance LAQVFIIEAPFMTKFLPMLR returned an amyloid nucleation score of 2.81 ± 0.097.
The substance CHNNFVYRGNAPRRHLEQGV displayed an amyloid nucleation score of 0.062 ± 0.77.
Substance GLCSIYNWYLVFQVIRTLSW registered an amyloid nucleation score of 2.41 ± 0.14.
In turn, QLNIHLMNLRI returned an amyloid nucleation score of 9.23 ± 0.056.
For the substance DRSAIMVRCNQIFHISPIGF, the amyloid nucleation score was found to be 6.31 ± 0.064.
For the substance GRMWEMACFLATNMLGKSDS, the amyloid nucleation score was 0.959 ± 0.29.
In the case of TSRKTEFQPFAGSICLYMGI, the amyloid nucleation score was determined as 0.18 ± 0.63.
Regarding RCFIHRGGLLVVLV, the amyloid nucleation score is -0.98 ± 0.54.
To CFDKLAVMACKSSGWHNPPT belongs 0.75 ± 0.43; to SVYDTKHLLNLLDSAVISNH, -0.481 ± 0.76.
To VMARYMFVK belongs 0.064 ± 0.65.
To GVDKGSVYG belongs “inactive”.
For the substance DVSGISDARMGKPSQWYGWY, the amyloid nucleation score was 0.182 ± 0.38.
To GHLRYTIDTGTTSGSSDLMS belongs -0.842 ± 0.63.
To VAYLTFLWNQYAVRARKRLP belongs -0.085 ± 0.35; to SLAYRFRWKLGNKVKF, 2.02 ± 0.1.
To HKFIPAVVSCMQGNMKNYWS belongs -0.166 ± 0.5.
AQVDGSISSSSVVSVLKSEV gave an amyloid nucleation score of -0.262 ± 0.36.
In turn, RLVTWGISQNRLAQLY showed an amyloid nucleation score of -0.001 ± 0.33.
Take HCHAVDSLNVHFKEFIHRMN: the amyloid nucleation score entry was “inactive”.
For the substance WWKYLVICLWARMALKGFSL, the amyloid nucleation score result is “inactive”.
To NNLTKWLNHWRYFRFSSALE belongs -0.178 ± 0.5; to SVDIKIFLQPAYFCNATAAV, 6.435 ± 0.039.
The substance LGLPNNGL came in with an amyloid nucleation score of -0.187 ± 0.55.
Substance MIRKVYYSF had an amyloid nucleation score of -0.77 ± 1.
Consider KMTLLFARQFGV, for which the amyloid nucleation score is 2.93 ± 0.12.
In the case of SSFFVAPGSSLLLIRLLCSS, the amyloid nucleation score result was “inactive”.
To IRPLFTVLGRKTRQIFTM belongs -0.283 ± 1; to IFHHPNHIHVDQFSPLLFYE, -0.64 ± 0.79; to KNWVYVAWRRENYEQPFIR, -0.299 ± 1.
The substance HRVRSDDLVKAWPQWNALGA came in with an amyloid nucleation score of 1.18 ± 0.12.
FIARDRLMTDRTRGKPSWEG gave an amyloid nucleation score of 0.231 ± 0.3.
In the case of ASAAAHVRIYQMIFVFERQL, the amyloid nucleation score came to 0.001 ± 0.48.
To VWIAKKGQRSRFQLRSGMCA belongs 0.641 ± 0.74.
CKGLNMFLLFSHSHSCMLRG came in with an amyloid nucleation score of -1.35 ± 0.39.
Regarding NVSGMFISMLIFRIMHHGQC, the amyloid nucleation score came to 5.11 ± 0.055.
Substance IYEQPG yielded an amyloid nucleation score of 0.012 ± 0.54.
To WYGFFTVLWSKTVRLDFNPM belongs -1.05 ± 0.54; to SFPRRMPSD, 2.38 ± 0.071.
With SFAMSRHLQPGGNEQFRM, the amyloid nucleation score was 1.16 ± 0.57.
Take YFLALAYRAVPLLWYRPRGL: the amyloid nucleation score came out at 0.751 ± 0.38.
Regarding DGALNTFIDYGLSTAIKKIN, the amyloid nucleation score entry was “inactive”.
Turning to YCCGGRIRKSRLINFYVTWS, the amyloid nucleation score was -0.046 ± 0.5.
SHFFAQPGNGMRWCVRIKVC showed an amyloid nucleation score of 0.744 ± 0.8.
AWTAETFKVLCVVMSY had an amyloid nucleation score of 0.382 ± 0.24.
Consider YRCFGERIFLHAHRE, for which the amyloid nucleation score result is “inactive”.
HVYYTVNLVLVNLYPLYFFT yielded an amyloid nucleation score of 5.855 ± 0.041.
To WCSKKPDEFLTINAFRYWED belongs -0.736 ± 0.34; to NCLMLVGNIFWSEESPRLAM, 8.041 ± 0.068.
With WSWGGHAVMFY, the amyloid nucleation score is -0.424 ± 1.1.
The substance DETYHKYDRFWLGVMSFGFY gave an amyloid nucleation score of -0.787 ± 0.34.
To EEYFDWSMKCKLIYINRVPL belongs -0.358 ± 1; to VDTELKVNSYRPGWTEHSRT, 0.738 ± 0.21; to SHCLNLGDLRVGYKSGM, “inactive”.
The substance TISDTCHESRLDVMRNVPYM returned an amyloid nucleation score of 5.091 ± 0.043.
To YSVIRS belongs -0.171 ± 0.34; to LFISFAACGTF, 2.09 ± 0.11.
AEADGYLFSALHTPYWTSGV displayed an amyloid nucleation score of 0.294 ± 0.64.
On to IFSISLLMAQYIGVWFFRRV, for which the amyloid nucleation score result is “inactive”.
Substance FDTGSRYFFNELRGGNCHCW showed an amyloid nucleation score of 1.26 ± 0.21.
Turning to GVFSLRKGGCRDW, the amyloid nucleation score was -0.567 ± 1.1.
To VSVHAVGLSYCMICFSLQNG belongs -0.611 ± 0.23; to KFMVLITVRMIVIRPVSVRS, 0.647 ± 0.58; to NGLSSSTWGPWMYCWCVNMV, 8.751 ± 0.057.
For MFGTMWAWFSVYACEVAWN, the amyloid nucleation score was found to be 0.045 ± 0.62.
Consider IGLKYSLWVVGFEVRLRCAD, for which the amyloid nucleation score was determined as 3.86 ± 0.07.
With CERGLFFVMY, the amyloid nucleation score is -1.15 ± 1.1.
For the substance RSLYVVFWIAGFEWGEIRVA, the amyloid nucleation score was 0.822 ± 0.26.
The substance LRPLIIPGSKRHCNTVL registered an amyloid nucleation score of -0.005 ± 0.79.
As to RTFLDIIGQTLLYVLVTVLA, the amyloid nucleation score stood at 0.548 ± 0.46.
For the substance VLGVLR, the amyloid nucleation score entry is “inactive”.
In the case of YGFENLVSILKFVQVNSKCG, the amyloid nucleation score is 1.38 ± 0.085.
As for TRVNNGSTVHNKMLTS, the amyloid nucleation score was 0.634 ± 0.74.
Consider HVFFHFRDVTSGL, for which the amyloid nucleation score was 4.64 ± 0.065.
To MKGNSSGVA belongs 1.25 ± 0.31; to SFNNTHVVPMYLFF, 5.402 ± 0.047; to VVRKRSKMKLRRIHFSWLVW, 0.744 ± 0.26.
With LGCICMR, the amyloid nucleation score came out at 4.09 ± 0.071.
To IMNSQVVGSFHA belongs -0.357 ± 0.37; to QYYELWSFTDWVWDLWGVQS, -0.568 ± 0.63.
To GDRDVI belongs 1.31 ± 0.38; to IAITDFVLVSVLHSKWCIF, -0.246 ± 0.5.
To PITCMLQ belongs 0.398 ± 0.35; to MFGGPGGGRDRVMVGDVLLG, 0.295 ± 1.
For the substance AFESKAPGRSSLVGIACSYS, the amyloid nucleation score is -0.48 ± 0.48.
On to KMKAGAMWCGSRIASKSRRG, for which the amyloid nucleation score is 1.51 ± 0.15.
Take TTMIAVVRFTRD: the amyloid nucleation score was found to be 2.07 ± 0.29.
Substance FLSRSQRCMIG returned an amyloid nucleation score of 0.313 ± 0.64.
The substance SSSKRNSKDPSGLGLVCVE registered an amyloid nucleation score of 0.795 ± 0.46.
As to RHMSTVKTLSEGLNLESGLI, the amyloid nucleation score was -0.519 ± 0.74.
To VGYIMYIYDGYRVVFVGYYR belongs 0.217 ± 0.65.
LFERLELFWYNEGHIMGFGL yielded an amyloid nucleation score of 3.42 ± 0.049.
With SGSRVYFQTPN, the amyloid nucleation score entry was “inactive”.
LEDGRTSLGMTQRYSIRNIC registered an amyloid nucleation score of -1.11 ± 0.55.
Regarding ALRYVMRLY, the amyloid nucleation score amounted to 2.53 ± 0.11.
CTSDVGGSQERVGSIQANSN: the amyloid nucleation score was 2.48 ± 0.2.
In turn, MGPKSRFRSTRNGVKYL showed an amyloid nucleation score of -0.571 ± 0.64.
In the case of FAIGR, the amyloid nucleation score is -0.077 ± 0.36.
To RHTFLVSAGYKERMVGMTSG belongs -1.12 ± 0.63.
To IVCITTSNVLTCDIDGNITK belongs 4.27 ± 0.044; to RSYLIKSLVSSLSARWIMMS, -0.03 ± 0.49; to AFCMDYAAQSAVTRSRDSCS, 0.909 ± 0.53.
The substance TSANLLLYRVLKSFLARQHQ displayed an amyloid nucleation score of 0.062 ± 0.46.
On to FSDIWPLRP, for which the amyloid nucleation score worked out at 0.806 ± 0.15.
Regarding HDKLVTRLYWYSKCVVKGLN, the amyloid nucleation score was -0.375 ± 1.1.
On to RHRRHLNHYAPTSSMIWTYS, for which the amyloid nucleation score turned out to be 0.258 ± 0.65.
Consider RSGSQENKVSECAQDTTFSV, for which the amyloid nucleation score is 0.367 ± 0.54.
As for GTFSCGSGEI, the amyloid nucleation score stood at 0.534 ± 0.8.
To SGWELYP belongs 1.91 ± 0.11.
In turn, HSVKCDSLGFLPFSTYWLRI registered an amyloid nucleation score of -0.047 ± 0.79.
Regarding CCFRLLGYAGN, the amyloid nucleation score was -0.961 ± 0.5.
To LQYIY belongs -0.533 ± 0.78; to SLWTNTSWSAVVQNNWYGTF, 6.94 ± 0.054.
